This is an account of results in PMC6468305.

For this experiment, the target named is S. epidermidis Csm3 (SeCsm3) in the Cas10–Csm effector complex (S. epidermidis RP62a). Kind of experiment: cryo-EM structure.

For “S. epidermidis Csm3 (SeCsm3) in the Cas10–Csm effector complex (natural protein)”, the stoichiometry N was found to be 5.
